Positions count from the first letter of the chain named.
B1: NbCoV_10 (VHH)
VHH: QVQLQESGGGLVQAGGSLHLSCTASGSENMLRWYAVGWYRQAPGKQRELVATITRGGSTNVVDSVKGRFTISRDNAKNMVALQMNSLKPEDTAVYSCAAAYAPYTDYHPVEYVYWGQGTQVTVSS
notes: also called Nb 10; 10 Mebus
B2: NbCoV_43 (VHH)
VHH: QVQLQESGGGLVQPGGSLRLSCVASGSIGSINHMAWFRKPPGKERELVASITLAPDEIAYYADSVKGRFAISKGNAQPTLYLQMNSLKPEDTAVYYCHFRQIRANAHDVYWGQGTQVTVSS
notes: also called Nb 43
B3: NbCoV_125 (VHH)
VHH: QVQLQESGGGLVQPGGSLRLSCAASAHFFSGGAMGWYRQAPGKERELVATITGGGDTNYAEHVKGRCTISSDISDNTVYLQMISLKPDDTAVYYCYARDLLQHPFWGQGTQVTVSS
B4: NbCoV_104 (VHH)
VHH: QVQLQESGGGLVQPGGSLRLSCAASGSIFRVMGWYRQAPGKEHDLVATITRSGDTNYADSVKGRFTISRDNTKNTVYLQMNNLKPEDTDVYYCYARNFVGHNPDVWGQGTQVTVSS
notes: also called Nb 104
B5: NbCoV_110 (VHH)
VHH: QVQLQESGGGLVQAGDSLRLSCAASGRTFGSHATAWFRQAPGKEREFVARIFWRGDYTYYADSVKGRFTISRDSAKNTVYLQMNSLKSEDTAVYYCAVARSWSDLDFENGYDYWGQGTQVTVSS
notes: also called Nb 110
B6: NbCoV_39 (VHH)
VHH: QVQLQESGGGLVQAGGSLRLSCAASGRTFSSTAMAWFRQAPGQEREFVATISWSGDNTKYADSVKGRFTISRDNAKNTVYLQMNSLKPEDTAVYYCAADPGNFGVPIEYFMFDYWGQGTQVTVSS
notes: also called Nb 39; 39A
B7: NbCoV_46 (VHH)
VHH: QVQLQESGGGLVQAGDSLRLSCAASGRTFSSLSAGWFRQAPGKEREFVAAIRWSDYNTYYVDSVKGRFTISRDNAKNTVYLQMDSLKPEDTAVYYCAATALGYRYASLESRNEYRYWGQGTQVTVSS
B8: NbCoV_45 (VHH)
VHH: QVQLQESGGGLVQAGGSLRLSCVASGRTLYAMGWFRQAPGKEREFVAATSWNGGNTNYGESVKGRFTISKDNAKNTVYLQMNSLKPEDTAVYNCAASSRDSRGTSTYASYDYWGQGTQVTVSS
notes: also called Nb 45; Nb45
B9: NbCoV_31 (VHH)
VHH: QVQLQESGGGLVQAGGSLRLSCAASGRTFSRSAVAWFRQAPGKEREFVAGISWSGRNVNYANSVKGRFTISRDSTKNTVYLQMNSLKPEDTAVYYCATSQFGSGTSDSEQYDYWGQGTQVTVSS
B10: NbCoV_27 (VHH)
VHH: QVQLQESGGGLVQPGGSLRLSCAASGSGFSLRVMGWYRQAPGKEHRLVATISRTGITNYADSVKGRFTISRDNAKDTVYLQMNNLKPEDTDVYYCYARNFVGDDFNLWGQGTQVTVSS
B11: NbCoV_44 (VHH)
VHH: QVQLQESGGGLVQAGGSLRLSCAASGRTVSYRVMGWFRQAPGKEREFVAFVDWSSGTAYYAESVQGRFIMSRDTADNTGFLQMNNLKPEDTAVYYCAADPFFRVIAYSDPKRYSYWGQGTQVTVSS
B12: NbCoV_136 (VHH)
VHH: QVQLQESGGGLVQTGGSLRLSCAASGRTASSYTMGWFRQAAGKERDFVAAIRESLGYTNYADSVKGRFTISRDNANNTVYLQMNSLKPEDTAVYYCAAYEGIRYSSTRADFYNYWGQGTQVTVSS
B13: NbCoV_32 (VHH)
VHH: QVQLQESGGGSVQPGGSLRLSCAVSRSRFSLVTMGWYRQAPGKERELVAAIAIGGSTKYADSVKGRFTISRDNAKSTVYLQMNSLQPEDTAVYYCNEARVYDSNWYPRDYWGQGTQVTVSS
B14: NbCoV_145 (VHH)
VHH: QVQLQESGGGLVQAGGSLRLSCAASGRTFSSYAMGWFRQAPGKEREFVAVINWSGANTRYTDSVKGRFSISRDNAKNTVYLQMNSLKPEDTAVYYCAADPGNFGVPIEHFMYDYWGQGTQVTVSS
notes: also called Nb 145
B15: NbCoV_71 (VHH)
VHH: QVQLQESGGGLVQAGGSLRLSCAASGLTFGYTATAWFRQAPGKEREFVARIFKRGGYTYYSDSVKGRFTVSRDSAKDTVYLQMNSLKSEDTAVYYCAVAREWSDLDFRDGYDYWGQGTQVTVSS
B16: NbCoV_78 (VHH)
VHH: QVQLQESGGGLVQAGGSLRLSCVASGRAFSSSSMGWFRQAPGKEREFVAAIRWSDDNTVYVDSVKGRFAISRDNAKNTVYLQMNSLKPEDTAVYYCAATGLGYRYAVLESRSEYRYWGQGTQVTVSS
B17: NbCoV_48 (VHH)
VHH: QVQLQESGGGLVQPGGSLRLSCVASRSIGSINHMAWYRKAPGKERELVASITLSPSETVYYTEVVKGRFAISKGNAQNTLYLQMNSLKPEDTAVYYCHFRQIRAIADDVYWGQGTQVTVSS
B18: NbCoV_29 (VHH)
VHH: B8 VHH with V23A, T49K, N57Y, G59A, E60D, R99W, T104S, T106N, A108V, S109H

The binders below were run against Peptide 84 of the Spike peptide array (B.E.I resources NR-52402) (assay: peptide array ELISA, 100 ng peptide coated, 100 ng nanobody per well).

Point of comparison: B2, “OD 405 nm” value 0.555 OD 405 nm. Against it:
- B1 — lower, 0.226 OD 405 nm
- B3 — lower, 0.214 OD 405 nm

What follows are binders tested against Peptide 175 of the Spike peptide array (B.E.I resources NR-52402) in the same assay as above.

For B4, the “OD 405 nm” value was 0.503 OD 405 nm.

These binders were tested against Peptide 125 of the Spike peptide array (B.E.I resources NR-52402) in the same assay as above.

For B4, the “OD 405 nm” value was 0.731 OD 405 nm.

The binders below were run against Peptide 16 of the Spike peptide array (B.E.I resources NR-52402) in the same assay as above.

With B5 the “OD 405 nm” value was 0.64 OD 405 nm.

Each binder was assayed against Peptide 59 of the Spike peptide array (B.E.I resources NR-52402) in the same assay as above.

B6 was tested, and the “OD 405 nm” value was 0.423 OD 405 nm.

The binders below were run against Spike protein of wild-type virus isolate USA-WA1/2020 (SARS-CoV-2, UniProt P0DTC2 14-1273) (assay: cell-based or functional assay).

Point of comparison: B2, “wildtype VN, plaque reduction assay, neutralizing activity” value 3.12 nM. Against it:
- B4 — 3.2-fold lower, 0.977 nM
- B6 — 13-fold lower, 0.244 nM

The binders below were run against T1, Receptor Binding Domain (RBD) of the SARS-COV-2 protein S (SARS-CoV-2, UniProt P0DTC2 319-541) (assay: phage ELISA, RBD coated).

B7: no binding.
B3: binds.
B8: no binding.

What follows are binders tested against T1, Receptor Binding Domain (RBD) of the … (assay: as told in Example 8).

B1: binds.

The binders below were run against T1, Receptor Binding Domain (RBD) of the … (assay: ELISA, purified nanobody, RBD coated).

Point of comparison: B13, EC50 83.6 nM. Against it:
- B4 — 15-fold lower, 5.45 nM
- B9 — 1.6-fold higher, 137 nM
- B10 — 120-fold lower, 0.7 nM
- B2 — 460-fold lower, 0.18 nM
- B11 — 5-fold lower, 16.8 nM
- B12 — 6.2-fold lower, 13.4 nM
- B6 — 290-fold lower, 0.29 nM
- B14 — 18-fold lower, 4.63 nM
- B15 — 51-fold lower, 1.63 nM
- B5 — 2.6-fold lower, 32.4 nM
- B16 — 5-fold lower, 16.6 nM
- B17 — 47-fold lower, 1.78 nM
- B18 — within 1.5-fold, 55.9 nM

— patent US20240254202A1 (CONSEJO NACIONAL DE INVESTIGACIONES CIENT FICAS Y T CNICAS …, published 2024)
